{"source": "paper PMC2651826", "about": "(Biochemistry, 2008)", "molecules": {"B1": {"name": "wild-type RS1 (retinoschisin), secreted from HEK 293 cells, O15537 24-224 (natural protein)", "chain": "STEDEGEDPWYQKACKCDCQGGPNALWSAGATSLDCIPECPYHKPLGFESGEVTPDQITCSNPEQYVGWYSSWTANKARLNSQGFGCAWLSKFQDSSQWLQIDLKEIKVISGILTQGRCDIDEWMTKYSVQYRTDERLNWIYYKDQTGNNRVFYGNSDRTSTVQNLLRPPIISRFIRLIPLGWHVRIAIRMELLECVSKCA"}, "B2": {"name": "recombinant RS1 secreted from stably transformed Sf21 insect cells, O15537 24-224 (natural protein)", "chain": "B1 chain"}, "B3": {"name": "RS1 secreted from Weri-retinoblastoma cells, O15537 24-224 (natural protein)", "chain": "B1 chain"}, "B4": {"name": "RS1 C59S/C223S double cysteine mutant (natural protein, human, UniProt O15537 24-224, looked up)", "chain": "B1 chain with C36S, C200S"}}, "key": {"[1]": {"molecular_target": "RS1 from retinal membrane extracts (bovine (endogenous in retinal membranes))", "experiment": "non-reducing SDS gel electrophoresis with western blot"}, "[2]": {"molecular_target": "T1, wild-type RS1 (retinoschisin), secreted from HEK 293 cells (human), O15537", "T1 chain": "B1 chain", "experiment": "non-reducing SDS gel electrophoresis with western blot", "conditions": "remark: other sources report otherwise"}, "[3]": {"molecular_target": "T2, recombinant RS1 secreted from stably transformed Sf21 insect cells (human), O15537", "T2 chain": "B1 chain", "experiment": "non-reducing SDS gel electrophoresis with Coomassie Blue staining", "conditions": "remark: other sources report otherwise"}, "[4]": {"molecular_target": "T2, recombinant RS1 secreted from stably …", "experiment": "non-reducing SDS gel electrophoresis with western blot", "conditions": "remark: other sources report otherwise"}, "[5]": {"molecular_target": "T3, RS1 secreted from Weri-retinoblastoma cells (human (endogenous in Weri-Rb1)), O15537", "T3 chain": "B1 chain", "experiment": "non-reducing SDS gel electrophoresis with western blot", "conditions": "remark: other sources report otherwise"}, "[6]": {"molecular_target": "the molecule itself", "experiment": "non-reducing SDS gel electrophoresis with western blot"}}, "note": "Numbering of substitutions follows the chain as printed. Names and notes keep the numbering of the source.", "data": [{"molecule": "RS1 from retinal membrane extracts (natural protein)", "values": [{"measurement": "stoichiometry N", "setting": "[1]", "value": 8}]}, {"molecule": "B1", "values": [{"measurement": "stoichiometry N", "setting": "[2]", "value": 8}]}, {"molecule": "B2", "values": [{"measurement": "stoichiometry N", "setting": "[3]", "value": 8}, {"measurement": "stoichiometry N", "setting": "[4]", "value": 8}]}, {"molecule": "B3", "values": [{"measurement": "stoichiometry N", "setting": "[5]", "value": 8}]}, {"molecule": "B4", "values": [{"measurement": "stoichiometry N", "setting": "[6]", "value": 2}]}]}
